Measurements taken from patent US20080181886A1 (Genentech, published 2008).

T1: Murine APRIL (mouse, UniProt Q9D777 105-241, limits assumed)
T1 sequence (looked up): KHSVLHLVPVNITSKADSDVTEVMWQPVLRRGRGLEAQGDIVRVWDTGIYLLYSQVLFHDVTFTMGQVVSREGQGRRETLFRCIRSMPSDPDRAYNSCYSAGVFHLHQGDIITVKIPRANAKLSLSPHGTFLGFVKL


Tests used:
[1] = target: T1, Murine APRIL; experiment: shotgun scan, phage display
Source text: (§1) Phage from each of the libraries described above were subjected to rounds of binding selection against APRIL, BAFF, or anti-tag antibody (3C8:2F4 Genentech, Inc.) immobilized on 96-well Nunc Maxisorp immunoplates (Sidhu, 2001). BSA-coated wells were used to determine non-specific background binding. Phage eluted from each target were propagated in E. coli XL1-Blue in the presence of M13K07 helper phage; amplified phage were used for selection against the same target in the […] round. […] Enrichment was calculated from the ratio of the phage titer eluted from the target-coated wells to the phage titer eluted from the BSA-coated wells. Individual clones from each library and selection target were then grown in a 96-well format in 400 ul of 2YT medium supplemented with carbenicillin and KO7 helper phage. […] Sequences of acceptable quality were translated and aligned. For APRIL-binding, 71, 40, and 54 sequences were analyzed from libraries one, two and three, respectively. For BAFF-binding, 70, 50, and 53 sequences were analyzed for libraries one, two and three, respectively. For the display selection, a minimum of 47 sequences were analyzed for each library. […] F values describe the effect of mutation on target binding, while accounting for differences in display efficiencies, with values >1 representing deleterious mutations and those <1 representing favorable mutations.

[2] = target: T2, human BAFF (human, UniProt Q9Y275 82-285, limits assumed); experiment: shotgun scan, phage display
Source text: as §1

[3] = target: T1, Murine APRIL; experiment: NNS library, phage display;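 further: ligand versus display occurrence-to-degeneracy ratio and higher means enriched by binding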
Description: (§2) This new phage library was subjected to sorting against either BAFF, APRIL or the display target antibody. After 3 rounds of sorting, approximately 48 clones were picked from each selection and the DNA sequences of the phage clones were determined. […] The normalized F′ value corrects for display bias and is calculated as the percent occurrence to percent degeneracy ratio for ligand selection divided by the percent occurrence to percent degeneracy ratio for display efficiency. Percent occurrence is calculated by dividing the number of times a particular amino acid appeared at a particular position by the total number of amino acids sequenced at that position followed by multiplying by 100. Percent degeneracy is calculated by dividing the degeneracy in code for a particular amino acid divided by the total degeneracy possible at that position followed by multiplying by 100 (e.g., if only A, G and I were selected, total degeneracy possible would be 5).

[4] = target: T2, human BAFF; experiment: NNS library, phage display;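 further: ligand versus display occurrence-to-degeneracy ratio and higher means enriched by binding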
Description: as §2

T2 sequence (Q9Y275 82-285 limits assumed): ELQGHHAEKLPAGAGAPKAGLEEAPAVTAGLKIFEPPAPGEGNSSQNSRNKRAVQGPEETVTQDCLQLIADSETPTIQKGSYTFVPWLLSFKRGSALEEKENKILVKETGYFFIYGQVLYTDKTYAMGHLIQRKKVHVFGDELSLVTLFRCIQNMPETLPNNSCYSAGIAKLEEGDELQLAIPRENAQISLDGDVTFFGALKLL

Binder	F (APRIL) [1]	F (BAFF) [2]	F' APRIL [3]	F' BAFF [4]
SLSCRKEQGKFYAHLLRDCISCASICGQHPKQCAYFCENKLR (receptor, phage library variant, format as m9) [TACI_d2 D80A]	> 43	> 42		
SLSCRKEQGKFYDHLLRDCISCASICGQHPTQCAYFCENKLR (receptor, phage library variant, format as m9) [TACI_d2 K98T]	6.4	8.7		
SLSCRKEQGKFYDHLLRDCISCASACGQHPKQCAYFCENKLR (receptor, phage library variant, format as m9) [TACI_d2 I92A]	11		0	0
SLSCRKEQGKFYDHLLRDCVSCASICGQHPKQCAYFCENKLR (receptor, phage library variant, format as m9) [TACI_d2 I87V]	1.4	1.1		
SLSCRKEQGKFQDHLLRDCISCASICGQHPKQCAYFCENKLR (receptor, phage library variant, format as m9) [TACI_d2 Y79Q]			0	0
SLSCRKEQGKFYDHLLRDCTSCASICGQHPKQCAYFCENKLR (receptor, phage library variant, format as m9) [TACI_d2 I87T]	> 19	> 22		
SLSCRKEQGKFPDHLLRDCISCASICGQHPKQCAYFCENKLR (receptor, phage library variant, format as m9) [TACI_d2 Y79P]			2	3
SLSCRKEQGKFYDHVLRDCISCASICGQHPKQCAYFCENKLR (receptor, phage library variant, format as m9) [TACI_d2 L82V]	> 20	> 25		
SLSCRKEQGKFGDHLLRDCISCASICGQHPKQCAYFCENKLR (receptor, phage library variant, format as m9) [TACI_d2 Y79G]			0	0
SLSCRKEQGTFYDHLLRDCISCASICGQHPKQCAYFCENKLR (receptor, phage library variant, format as m9) [TACI_d2 K77T]	0.7	0.6		
SLSCRKEQGKFYDHLLRDCISCASICGQHPKQCAYFCENKAR (receptor, phage library variant, format as m9) [TACI_d2 L108A]	1	1.2		
SLSCRKEQGKFKDHLLRDCISCASICGQHPKQCAYFCENKLR (receptor, phage library variant, format as m9) [TACI_d2 Y79K]			0	0
SLSCRKEQGKFYDHPLRDCISCASICGQHPKQCAYFCENKLR (receptor, phage library variant, format as m9) [TACI_d2 L82P]	> 49	> 61		
SLSCRKEQGKFYDHLLRACISCASICGQHPKQCAYFCENKLR (receptor, phage library variant, format as m9) [TACI_d2 D85A]	0.5	0.8		
SLSCRKEQGKSYDHLLRDCISCASICGQHPKQCAYFCENKLR (receptor, phage library variant, format as m9) [TACI_d2 F78S]	> 66		0	0
SLSCRKEQGKFVDHLLRDCISCASICGQHPKQCAYFCENKLR (receptor, phage library variant, format as m9) [TACI_d2 Y79V]			0	2
SLSCRKEQGKFWDHLLRDCISCASICGQHPKQCAYFCENKLR (receptor, phage library variant, format as m9) [TACI_d2 Y79W]			3	4
SLSCRKEQGKFLDHLLRDCISCASICGQHPKQCAYFCENKLR (receptor, phage library variant, format as m9) [TACI_d2 Y79L]			0	1
SLSCRTEQGKFYDHLLRDCISCASICGQHPKQCAYFCENKLR (receptor, phage library variant, format as m9) [TACI_d2 K73T]	5	8.9		
SLSCRKEQGEFYDHLLRDCISCASICGQHPKQCAYFCENKLR (receptor, phage library variant, format as m9) [TACI_d2 K77E]	1.4	0.9		

Binder	F (APRIL) [1]	F (BAFF) [2]	F' APRIL [3]	F' BAFF [4]
SLSCRKEQGKFRDHLLRDCISCASICGQHPKQCAYFCENKLR (receptor, phage library variant, format as m9) [TACI_d2 Y79R]			0	0
SLSCRKEQGKFYDHLLRDCISCASICAQHPKQCAYFCENKLR (receptor, phage library variant, format as m9) [TACI_d2 G94A]	34	10		
SLSCRAEQGKFYDHLLRDCISCASICGQHPKQCAYFCENKLR (receptor, phage library variant, format as m9) [TACI_d2 K73A]	1.6	2		
SLSCRKEQGKFYDHALRDCISCASICGQHPKQCAYFCENKLR (receptor, phage library variant, format as m9) [TACI_d2 L82A]	> 29	> 36		
SLSCRKEQGKFYDHLLADCISCASICGQHPKQCAYFCENKLR (receptor, phage library variant, format as m9) [TACI_d2 R84A]	1.1		2	3
SLSCRKEQGKFYDHLLRDCASCASICGQHPKQCAYFCENKLR (receptor, phage library variant, format as m9) [TACI_d2 I87A]	> 27	> 30		
SLSCRKEQGKFTDHLLRDCISCASICGQHPKQCAYFCENKLR (receptor, phage library variant, format as m9) [TACI_d2 Y79T]			0	0
SLSCRKEQGKFYDHLLRDCISCASICGQHPKQCAYFCENKVR (receptor, phage library variant, format as m9) [TACI_d2 L108V]	0.9	1.2		
SLSCRKEQGKFHDHLLRDCISCASICGQHPKQCAYFCENKLR (receptor, phage library variant, format as m9) [TACI_d2 Y79H]			0	0
SLSCRKEQGKFYDHLLRDCISCASICGQHPKQCAYFCEAKLR (receptor, phage library variant, format as m9) [TACI_d2 N106A]	1.2	0.9		
SLSCRKEQGKFNDHLLRDCISCASICGQHPKQCAYFCENKLR (receptor, phage library variant, format as m9) [TACI_d2 Y79N]			0	0
SLSCRKEQGKFYDHLLRDCISCASICGQHPKQCAYFCENALR (receptor, phage library variant, format as m9) [TACI_d2 K107A]	0.9	1.1		
SLSCRKEQGKFYDHLLRDCISCASICGQHPKQCAYFCENTLR (receptor, phage library variant, format as m9) [TACI_d2 K107T]	1.1	1.1		
SLSCRKEQGKFYDPLLRDCISCASICGQHPKQCAYFCENKLR (receptor, phage library variant, format as m9) [TACI_d2 H81P]	1.5	0.8		
SLSCRKEQGKFADHLLRDCISCASICGQHPKQCAYFCENKLR (receptor, phage library variant, format as m9) [TACI_d2 Y79A]	> 21		0	0
SLSCRKEQGKFYDHLLRDCISCASICGQHPKQCAYVCENKLR (receptor, phage library variant, format as m9) [TACI_d2 F103V]	0.6	0.7		
SLSCRKEQGKFIDHLLRDCISCASICGQHPKQCAYFCENKLR (receptor, phage library variant, format as m9) [TACI_d2 Y79I]			4	6
SLSCRKAQGKFYDHLLRDCISCASICGQHPKQCAYFCENKLR (receptor, phage library variant, format as m9) [TACI_d2 E74A]	0.7	0.6		
SLSCRKEQGKFMDHLLRDCISCASICGQHPKQCAYFCENKLR (receptor, phage library variant, format as m9) [TACI_d2 Y79M]			0	0
SLSCRKEQGKFYDHLVRDCISCASICGQHPKQCAYFCENKLR (receptor, phage library variant, format as m9) [TACI_d2 L83V]	4.8	1.6		
